These results are taken from publication doi:10.1101/2025.04.28.650843.

This assay has as its target allophycocyanin (AP) (Synechococcus elongatus PCC 7942). Briefly: cryo-EM structure.

Where “and” joins values, the source holds several entries; their conditions need not be identical. Identical values can stand only once.

Regarding allophycocyanin (AP) (complex), the stoichiometry N (as a rule, a count of units in the complex or per binding partner) is 3 and 6.
